Results as given in paper PMC9915621.
Positions count from the first letter of the chain named. Read-outs that look alike come from different tables or passages of the source.

T1: PlzA CTD (Borrelia burgdorferi B31, UniProt O51675 142-261)
T1 sequence: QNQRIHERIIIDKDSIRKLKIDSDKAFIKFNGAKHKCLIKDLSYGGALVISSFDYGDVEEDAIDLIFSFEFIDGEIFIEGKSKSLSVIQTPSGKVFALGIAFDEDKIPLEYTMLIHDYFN

T2: PlzA WT (Borrelia burgdorferi B31, UniProt O51675 1-261)
T2 sequence: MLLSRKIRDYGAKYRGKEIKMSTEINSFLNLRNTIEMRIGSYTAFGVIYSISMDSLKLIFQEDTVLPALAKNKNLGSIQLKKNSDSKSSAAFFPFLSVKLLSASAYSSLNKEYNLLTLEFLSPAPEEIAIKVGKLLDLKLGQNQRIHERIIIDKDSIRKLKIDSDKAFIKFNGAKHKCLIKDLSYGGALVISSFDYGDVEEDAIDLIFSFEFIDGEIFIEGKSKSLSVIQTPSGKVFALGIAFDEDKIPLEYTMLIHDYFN

T3: PlzA RD-RD (Borrelia burgdorferi B31, UniProt O51675 1-261, R145D;R149D)
T3 sequence: T2 sequence with R145D, R149D

B1: glpFKD(-7/+35) (dsDNA)
DNA 1: ATTAAATATAATTTTAATAAGGCTTTTATTAGAAAAATTAAT
DNA 2: ATTAATTTTTCTAATAAAAGCCTTATTAAAATTATATTTAAT
B2: ssglpF (ssDNA)
DNA: B1 DNA 1
B3: glpFKD(UTR) RNA (ssRNA)
RNA: AUAAUUUUAAUAAGGCUUUUAUUAGAAAAAUUAAU

Experiments:
Assay in all cases: EMSA
[1] = biological target: T1, PlzA CTD
[2] = biological target: T2, PlzA WT
[3] = biological target: T2, PlzA WT; remark: listed apart in the source
[4] = biological target: T3, PlzA RD-RD
[5] = biological target: T2, PlzA WT; remark: listed apart in the source
[6] = biological target: T2, PlzA WT; remark: listed apart in the source
[7] = biological target: T2, PlzA WT; remark: listed apart in the source
[8] = biological target: T3, PlzA RD-RD; remark: listed apart in the source

Row | Binder | binding result [1] | Kd [2] [µM] | Kd [3] [µM] | binding result [4] | Kd [5] [µM] | Kd [6] [µM] | Kd [7] [µM] | binding result [8]
1 | B1 | no binding | 2.81 | 1.09 | no binding | 1.33 | 1.25 | 4.22 | 
2 | B2 |  |  | 4.42 |  |  |  |  | 
3 | B3 | no binding |  | 0.95 |  |  |  | 4.14 | no binding
